Experimental data reported in patent US20190247357A1, “NANOPARTICLE FORMULATIONS AND METHODS OF MAKING AND USING THEREOF” (Abraxis BioScience, LLC, priority 2016, published 2019).

What was measured:
[1] = tested on: A375 human melanoma cells; assay: A375 melanoma xenograft model: tumor volume change and survival; conditions: mice with tumors larger than 2000 mm^3 euthanized
Description: A375 human melanoma cells were subcutaneously injected into mice to generate xenograft models. The tumors were allowed to grow to about 600 mm^3 before treatment according to the following protocols. Nine mice were treated for each protocol, except as noted.
Cohort 1—Vehicle control (“Vehicle”). […] The vehicle control was administered to each mouse at a dosage of 120 μL/mouse on the second day of the experiment.
Cohort 4—BEV12 and ABX30 on same day (“BEV12+ABX30—Same Day”).
P-values were determined using an un-paired t-test.
Survival time of the treated mice was also recoded. Mice with tumors larger than 2000 mm^3 were euthanized.

[2] = target: ErbB2 (UniProt P04626); assay: Phospho(Tyr1248)/Total ErbB2 binding assay, MSD whole cell lysate kit, BT-474 cells treated 2 h
[3] = target: ErbB2 (UniProt P04626); assay: Phospho(Tyr1248)/Total ErbB2 binding assay, MSD whole cell lysate kit, SK-BR-3 cells treated 2 h

Substance	IC50 [2] [nM]	IC50 [3] [nM]	Median Survival [1] [days]
bevacizumab: antiangiogenic antibody that targets vascular endothelial growth factor A (VEGF-A)			38
Nanoparticles with embedded trastuzumab, paclitaxel and albumin (Example 12, Batch 1, paclitaxel:trastuzumab 5.6:1) (from UniProt P02768 25-609)	0.35	0.357	
Nanoparticles with embedded trastuzumab, paclitaxel and albumin (Example 12, Batch 3, paclitaxel:trastuzumab 6.7:1) (from UniProt P02768 25-609)	0.456	0.37	
SM(PEG)6 conjugate of trastuzumab and isolated nab-paclitaxel particles (Example 23, paclitaxel:trastuzumab 92.5:1) (from UniProt P02768 25-609)	0.291	0.557	
SM(PEG)6 conjugate of trastuzumab and nab-paclitaxel particles with free mAb (Example 35, paclitaxel:trastuzumab 10:1) (from UniProt P02768 25-609)	0.441	0.301	
Thiolated conjugate of trastuzumab and nab-paclitaxel particles (Example 33, paclitaxel:trastuzumab 12:1) (from UniProt P02768 25-609)	0.216	0.977	

Further substances by falling IC50 [3], results first:

IC50 [2] [nM]	IC50 [3] [nM]	Substance	Median Survival [1] [days]
0.702	0.59	Click conjugate of trastuzumab and nab-paclitaxel particles (Example 26, paclitaxel:trastuzumab 51:1) (from UniProt P02768 25-609)	
0.524	0.409	Nanoparticles with embedded trastuzumab, paclitaxel and albumin, with free mAb (Example 20, paclitaxel:trastuzumab 10:1) (from UniProt P02768 25-609)	
0.349	0.361	Nanoparticles with embedded trastuzumab, paclitaxel and albumin (Example 12, Batch 2, paclitaxel:trastuzumab 5.9:1) (from UniProt P02768 25-609)	
	0.311	Thiolated conjugate of trastuzumab and nab-paclitaxel particles (Example 34, paclitaxel:trastuzumab 31:1) (from UniProt P02768 25-609)	
0.429	0.289	Nanoparticles with embedded trastuzumab, paclitaxel and albumin (Example 12, Batch 4, paclitaxel:trastuzumab 4.5:1) (from UniProt P02768 25-609)	
